Assay results as given in publication PMC5499572 (Nucleic Acids Research, 2017).
Numbering of substitutions follows the chain as printed. Each block holds one binder with its values, some of them ahead of it.

How the values were obtained:
His6TRX-Rrp9p = target: T1, His6TRX-Rrp9p (S. cerevisiae, UniProt Q06506 1-573); assay: native gel or EMSA
T1 sequence: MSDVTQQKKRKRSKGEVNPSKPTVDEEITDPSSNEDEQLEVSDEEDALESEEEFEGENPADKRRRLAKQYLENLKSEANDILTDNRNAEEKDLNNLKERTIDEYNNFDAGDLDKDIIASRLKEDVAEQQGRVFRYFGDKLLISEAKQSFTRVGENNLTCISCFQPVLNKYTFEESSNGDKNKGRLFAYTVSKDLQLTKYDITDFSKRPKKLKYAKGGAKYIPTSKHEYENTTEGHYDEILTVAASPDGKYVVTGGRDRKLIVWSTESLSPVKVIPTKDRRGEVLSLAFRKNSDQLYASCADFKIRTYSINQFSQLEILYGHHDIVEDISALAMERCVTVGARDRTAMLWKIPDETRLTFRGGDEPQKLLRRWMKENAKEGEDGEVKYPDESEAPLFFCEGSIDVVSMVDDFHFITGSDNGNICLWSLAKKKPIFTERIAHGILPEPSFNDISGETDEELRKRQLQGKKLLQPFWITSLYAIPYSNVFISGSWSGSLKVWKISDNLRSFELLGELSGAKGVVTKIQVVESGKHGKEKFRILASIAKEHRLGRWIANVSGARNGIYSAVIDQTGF

Rsa1p_(230-381) = target: T2, Rsa1p_(230-381) (S. cerevisiae, UniProt Q08932 230-381); assay: native gel or EMSA
T2 sequence: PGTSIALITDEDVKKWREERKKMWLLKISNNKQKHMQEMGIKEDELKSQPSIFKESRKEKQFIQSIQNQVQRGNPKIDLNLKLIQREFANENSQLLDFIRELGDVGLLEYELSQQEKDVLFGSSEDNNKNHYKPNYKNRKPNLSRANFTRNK

- binding result (His6TRX-Rrp9p): binds
- binding result (Rsa1p_(230-381)): binds
B1: Snu13p (recombinant, wild type) (natural protein)
chain: MSAPNPKAFPLADAALTQQILDVVQQAANLRQLKKGANEATKTLNRGISEFIIMAADCEPIEILLHLPLLCEDKNVPYVFVPSRVALGRACGVSRPVIAASITTNDASAIKTQIYAVKDKIETLLI

- binding result (His6TRX-Rrp9p): binds
B2: Snu13p variant E72/A (recombinant) (natural protein)
chain: B1 chain with E72A
